Source: the DeepSol protein solubility set

Assay: soluble on expression in E. coli; label from the status in PepcDB or PDB records

Sequence	soluble on expression in E. coli
MLYASLCRTPVFGILAQILCDIYSSIGCALSSFRSPLGPPFDFLFDTCSCQTARCFNKSKGVLITGSKLKAFRNPQPSWGFSVHKQVAALWQQLLSTGNVTRETDFFQQGGDSLLATRLTGQLHQAGYEAQLSDLFNHPRLADFAATLRKTDVPVEQPFVHSPEDRYQPFALTDVQQAYLVGRQPGFALGGVGSHFFVEFEIADLDLTRLETVWNRLIARHDMLRAVVRDGQQQVLEQTPRWVIPAHILHTPEEALQVREKLAHQVLNPEVWPVFDLQVGYVDGMPARLWLCLDNLLLDGLSMQILLAELEHGYQYPQQLPPPLPVTYRDYLQQPAIQSLNADSLAWWQAQLDDIPPAPALPLRCMPQDVETPRFARLNGALDSTRWHRLKKRAADAHLTPSAVLLSVWSTVLSAWSAQPEFTLNLTLFDRRPLHPQINQILGDFTSLMLLSWHPGESWLHSAQSLQQRLSQNLNHRDVSAIRVMRQLAQRQNVPAVPMPVVFTSALGFEQDNFLARRNLLKPVWGISQTPQVWLDHQVYESEGELRFNWDFVAALFPAGQVERQFEQYCTLLNRMTEDENSWHLPLAALVPPVKQAEQGTERTSRVCPEHSQSHIAADESTVSLICDAFREVVGESVTPAQNFFEAGATSLNLVQLHVLLQRHEFSTLTLLDLFTHPSPAALAAYLTSVATVEKTKRSRPVRRRQRRI	not soluble
MNVLIVGSGGREHALAWKMKQSPKVKNVIVAPGNGGHSERIDINSNDLDAVADFCEKHNIHCVLIGPEEPLSNGLADHLIRIHPNLMVFGPLKDGAQLETSKSFSKHFMKEYGLPTADFVTVSIENVKSLDCVFERLPWKNSVVKADGLAAGKGVIIPRNNAEAVEAARSILHGQFGNAGRTVIIEERLEGYEVSALAFTDGISFKRMPLGKDHKRLLESDLGPNTGMGVVAPVSVPKEVDRQIDEIFEKTLKGLADRKIKYCGVLYAGFMIVDQKPLLLEFNCRFGDPETQVLMRLLESDLFEIISSCVNQTLNTCDINWSTKSVCGVVLASGNYPKSGDKGSPITEIPSPDSTNVVFHAGTSVINSQIVTNGGRILCVTSLADTLHDAREHANKIAQNIQFTGKQFRKDIGKTIDIGTPSLSYGSSGVNIDEGNQFVEDIKLLVKKTLLPGAAQIGGFGAVLDLKKAGFSNDSQLVVGIDGVGTKIEVATHCNNFTGVGYDVVAMCVNDVICHCAKPIAFLDYFVCGKLERSMATQVLTSISEACVEAECSLIGGETAEMPGVYSTHQWDLAGCAIAARESTWPMLPLSSEIRDGDVILGLPSSGLHSNGFSLARKILTVNGVKYNDPLPWDSKSTFGTELLRGTKLYVKKVLPLLSTGLVKGCAHITGGGLTENAIRVLDKNSKDSLVIDCASWKFREIFNWMAAAGPVDTKEMIRTFNCGIGMVLIVSPDNVEKVKKQLRKHEEEFYEIGHVENSKNGEAIKFVNEEKMFQREKYTTQRKRVRVAILISGTGTNMQKLIERSKTPDSNCDVVLVVSNKEGAGGLTIAASYGIPTKVVPHTADRVTGDTELAQVLKDFGTELVCLGGYMRILSPCFISQFPSRIINIHPSLLPAFKGAHALQDALNFGVRIVGCTAHFVDELVDHGDIIAQRPVVVEDTDTIETVRQKIQLQEHEMFPNAMIAVAAKILEK	not soluble
MHCPFCFAVDTKVIDSRLVGEGSSVRRRRQCLVCNERFTTFEVAELVMPRVVKSNDVREPFNEEKLRSGMLRALEKRPVSSDDVEMAINHIKSQLRATGEREVPSKMIGNLVMEQLKKLDKVAYIRFASVYRSFEDIKEFGEEIARLED	soluble
MAHHHHHHMNTSLSNNENENNFFIKSFFESLSNFIKNIKIEIKDTFELLNYPCVYQNSKKKFSVSENEDYKNSLTTNVISKIDKKNIENFRVYQKELHNILQNIKTFNEKYKLDVPLLSIMENLIILHLINEYKINNIVKKIQEHNIPMPELNSDLPDYLIPTLELEENQNESNLNVSISEINNLSINNNAVKHILENAQLKVDFSKLVKLNGENHLNSSSINPSSELNEKSDELTLYKKDDKIHNLTHDIKEEINNERNEDQYLNRSHNNEDEKHTLMTSKKEEKVNLIQNIGLSEETLKLLNLLPKKRKNDQN	not soluble
MAHHHHHHMTAHVDRCVFFSKMGACRHGDQCTKLHYRPDTSPTVLFPLMYPNPHAIEHIKDREWNFELDKKYLKKHFEHFYKEVWRTFMEFGRIAELRVVSNLGDHLLGNVYIRFEDPQVATRIVKELRGKKLNDIIVLPELSPVTNFAEACCKEDLENRCQRGEQCNYLHIMKVSRRLLEKLEKEQSKYWKKKERRHEHSSSDRKRSRSRSPADTRW	soluble
MSLVEKQSALESKARSWLIERGVEIDDIAELVLFLQQKYHPGLELDICRQNVEHVLRKREVQNAVLTGIQLDVMAEKGELVQPLQNIISADEGLYGVDEILALSIVNVYGSIGFTNYGYIDKVKPGILAKLNEHDGIAVHTFLDDIVGAIAAAAASRLAHSYHDDIVNEGGSHHHHHH	soluble
MIEKKKNRSKLKREAILAAAKKAYQDDGVQNTSMDKLASLAQVSKRTVYNHFSSKEALVMELLSDLWQNSMADIDIQFSENVSIQDQLERLLLAELNVIGAQSYLDLAKVAFGHFFYKPDELQLQVEKMAEQETALSRWLQLMMDTKKLTIEDKHKAGVQLHSLLKGSAFWPQLVGMRAVLSSEEKEQLVTETADMFLSRYLKR	not soluble
MSLAKVLYITAHPFNELVSNSMAAGKAFIETYQQQHPDDEVKHIDLFETYIPVIDKDVLTGWGKMSNGETLTDDEQMKVSRLSDILEEFLSADKYVFVTPMWNLSFPPVVKAYIDAISIAGKTFKYSAEGPQGLLTDKKVLHIQSRGGYYTEGPAADFEMGDRYLRTIMTFLGVPSYETIIIEGHNAEPHKTEEIKATSINNAEKLATTFEGGSHHHHHH	soluble
MKSNPKYFLMNDVERQSKYSPKYVPNNSLKERILEFLDYYIAPLKLYLLSYPMPDCLWDNRKLRLKASGVQVTPSSEPVHIDDRLIHISQKQPSE	not soluble
MAHHHHHHMTSTVTAVNQTQSLAAIRNFVRASVSCITYARGLCSDNAYEQRPFLGLPLRQLIPSTTESITISEWIEKGAFDALNRNYLKEMSLCVYDAACHELLESYCFGFNYTGDGERAQMTLNASQTIADGSKTTAVSQSSGGAVGIPAYRKRRCTKQEVQHLLTSILERLMDVVESLPPLLSERVLTMRLTYYDAVTPASYEPPCFAPASEHMARLYQAEVKHHVNIGSMDTSHHLFSVAIRHPLLQQIHRQMTGRTTSAVATKTGGSPLSAGKIAAVSTPSDPLRSGWESSFSSDPAVASAVAAAGATVTHGVVASHASCGLLLCADGEGAAFDAENAGEEKAAGSSLGEVGGGGACTARTGETLRPCEVAKLDGVYRLMEKSTSGDERRLLRPAELTYLLFAAFVFTKAPSARGGRGELKADEVEAYRALRCPFDVSAKTVLLVLQRLSREDFLQPCNARGAPAPKMPKAEEGSRPTPAIRAWLVPDPPASLLQQLMQVDAVTELLTHESHLVLQELSVYLAREEWRRAPRTMTAKATSGRISTTGGSGKRRSSR	soluble
MGSDKIHHHHHHMATVAFHTLGCKVNHYETEAIWQLFKEAGYERRDFEQTADVYVINTCTVTNTGDKKSRQVIRRAIRQNPDGVICVTGCYAQTSPAEIMAIPGVDIVVGTQDREKMLGYIDQYREERQPINGVSNIMKARVYEELDVPAFTDRTRASLKIQEGCNNFCTFCIIPWARGLLRSRDPEEVIKQAQQLVDAGYKEIVLTGIHTGGYGEDMKDYNFAKLLSELDTRVEGVKRIRISSIEASQITDEVIEVLDRSDKIVNHLHIPIQSGSNTVLKRMRRKYTMEFFADRLNKLKKALPGLAVTSDVIVGFPGETEEEFMETYNFIKEHKFSELHVFPYSKRTGTPAARMEDQVDENVKNERVHRLIALSDQLAKEYASQYENEVLEIIPEEAFKETEEENMFVGYTDNYMKVVFKGTEDMIGKIVKVKILKAGYPYNEGQFVRVVEDEITEHMRLSS	not soluble
MPNVVGVQFQKAGKLEYYAPNQLDVEVGDWVVVQSKRGIEIGHVKFPLREVDVEDVTLPLKNIIRKMNEDDQETYYRNERDANDALELCKKVVKDQQLDMRLVNCEYTLDKSKVIFNFTADDRIDFRKLVKVLAQNLKTRIELRQIGVRDEAKLLGGIGPCGRSLCCSTFLGDFEPVSIKMAKDQNLSLNPTKISGACGRLMCCLKYENDYYEEARTQLPDVGDMIQTPDGHGKVIGLNILDISMQVKIEGLEQPLEYKMEEIEVLNLEHHHHHH	not soluble
MGSDKIHHHHHHSDSLQSAYDTDATYRDKAGKKESGYTATFTETCNSENDVQIIVDYTVEPNNKSDVEIFQDRMDIIKDNTNASDIYADGGYYGENVINKANSKGIEIQLHYTDMTGKTAPEGQLPAHHFVFNKDMEMVQCPGGQIPSSSKYNSKTKITTSHFPKEVCNNCPHRCNCPLKEQKRDMVVRISKKSILASQVRETVNDPHIKHENISKRAAIEGTNSAIKGCQGAKRLRVRGKIKCTLQIGFKVIGHNFKQIFRALTKQIKKPKIKTKGLLCPNPN	not soluble
AIASDEPKLSERSLHKFENVRIIIKDENKTCFQGELNIGEDWFCLLSEIDPSNSLRVNAKDLLLHAICQRDEHCEKPSIYCQVQGESDEDQYETIYIVPEESSQVEKIFETFCDLVRRTPVPLTDEEGSDGEWYGNVPWSVGNCDSEQFEDAEETDTQL	soluble
MLPKAFLSRMAELLGEEFPAFLKALTEGKRTYGLRVNTLKLPPEAFQRISPWPLRPIPWCQEGFYYPEEARPGPHPFFYAGLYYIQEPSAQAVGVLLDPKPGERVLDLAAAPGGKTTHLAARMGGKGLLLANEVDGKRVRGLLENVERWGAPLAVTQAPPRALAEAFGTYFHRVLLDAPCSGEGMFRKDREAARHWGPSAPKRMAEVQKALLAQASRLLGPGGVLVYSTCTFAPEENEGVVAHFLKAHPEFRLEDARLHPLFAPGVPEWGEGNPELLKTARLWPHRLEGEGHFLARFRKEGGAWSTPRLERPSPLSQEALRAFRGFLEEAGLTLEGPVLDRAGHLYLLPEGLPTLLGLKAPAPGLYLGKVQKGRFLPARALALAFGATLPWPEGLPRLALTPEDPRALAFATGEGVAWEGEDHPLALVVLKTAAGEFPLDFGKAKRGVLRPVGVGLRSHHHHHH	soluble
SMVSPREKQQTNSKGSSNFCVKNIKQAEFGRREIEIAEQDMSALISLRKRAQGEKPLAGAKIVGCTHITAQTAVLIETLCALGAQCRWSACNIYSTQNEVAAALAEAGVAVFAWKGESEDDFWWCIDRCVNMDGWQANMILDDGGDLTHWVYKKYPNVFKKIRGIVEESVTGVHRLYQLSKAGKLCVPAMNVNDSVTKQKFDNLYCCRESILDGLKRTTDVMFGGKQVVVCGYGEVGKGCCAALKALGAIVYITEIDPICALQACMDGFRVVKLNEVIRQVDVVITCTGNKNVVTREHLDRMKNSCIVCNMGHSNTEIDVTSLRTPELTWERVRSQVDHVIWPDGKRVVLLAEGRLLNLSCSTVPTFVLSITATTQALALIELYNAPEGRYKQDVYLLPKKMDEYVASLHLPSFDAHLTELADDQAKYLGLNKNGPFKPNYYRY	soluble
MQNAGSLVVLGSINADHILNLQSFPTPGETVTGNHYQVAFGGKGANQAVAAGRSGANIAFIACTGDDSIGESVRQQLATDNIDITPVSVIKGESTGVALIFVNGEGENVIGIHAGANAALSPALVEAQRERIANASALLMQLESPLESVMAAAKIAHQNKTIVALNPAPARELPDELLALVDIITPNETEAEKLTGIRVENDEDAAKAAQVLHEKGIRTVLITLGSRGVWASVNGEGQRVPGFRVQAVDTIAAGDTFNGALITALLEEKPLPEAIRFAHAAAAIAVTRKGAQPSVPWREEIDAFLDRQR	soluble
MGSDKIHHHHHHVPATYPLSSCIEWQFAEAGDLAARVRAAKADGFDLVEFHLWRDKPVEAIGAALADTGVALTGVCVDPRRSIVDPAERAEMVEAVRETIAATAPLGKPPLIVASGFRVEGMSEEDHFANAVAALKQAAALAEDAGVTLLLEPLNTRLFSAMYLVSTTLGLDLVEAVGSPNLRLLYDVWHSAVMGEDIADVLAGRIGLVAHVQVADMEDRNEPGTGTVDWAHVMNTLKSLGYQGSIGMEYFPTLPMDQSLKLTRETLAL	not soluble
